This is an account of results in paper PMC2933323 (Nature structural & molecular biology, 2010).

The target in test [1] is Rb expressed from CMV-Rb in Saos-2 cells (UniProt P06400). The experiment in a line: co-IP.
Test [2] concerns the target endogenous Rb of CV-1 cells (African green monkey (endogenous in CV-1)). Put plainly: co-IP.
Test [3] has as its target catalytic subunit of protein phosphatase 1 (PP1c), α isoform (human) (UniProt P62136).
In test [4] the target is catalytic subunit of protein phosphatase 1 (PP1c), α isoform (human, UniProt P62136 1-300). The experiment in a line: ITC.

Chain of catalytic subunit of protein phosphatase 1 (PP1c), α isoform (human) (P62136 1-300): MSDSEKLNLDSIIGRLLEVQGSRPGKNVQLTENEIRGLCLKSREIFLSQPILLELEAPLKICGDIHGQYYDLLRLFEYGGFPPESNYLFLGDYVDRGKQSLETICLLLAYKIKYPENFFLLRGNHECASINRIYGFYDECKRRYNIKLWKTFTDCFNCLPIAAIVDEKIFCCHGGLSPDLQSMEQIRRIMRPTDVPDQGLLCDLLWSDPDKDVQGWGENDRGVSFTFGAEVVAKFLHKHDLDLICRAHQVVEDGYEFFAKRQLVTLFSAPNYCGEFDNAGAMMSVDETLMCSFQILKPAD

In the case of “PP1 in transfected Saos-2 cells (exogenous myc-PP1c together with endogenous PP1) (from UniProt P62136 1-330) (enzyme)”, in test [1], the PP1 co-precipitated, percent of the immunoprecipitated Rb was 30%.

endogenous PP1 of CV-1 cells (enzyme) came in with a PP1 co-precipitated, percent of the immunoprecipitated Rb in test [2] of 2%.

B1: phosRb^771–874 (domain or fragment)
chain: YASTRPPTLSPIPHIPRSPYKFPSSPLRIPGGNIYISPLKSPYKISEGLPTPTKMTPRSRILVSIGESFGTSEKFQKINQMVCNSDRVLKRSAEGSNPPKPLKK
Turning to B1, in test [3], the apparent KM of dephosphorylation by PP1c (steady-state analysis) was 30 µM.

B2: phosRb^771–928 (domain or fragment)
chain: YASTRPPTLSPIPHIPRSPYKFPSSPLRIPGGNIYISPLKSPYKISEGLPTPTKMTPRSRILVSIGESFGTSEKFQKINQMVCNSDRVLKRSAEGSNPPKPLKKLRFDIEGSDEADGSKHLPGESKFQQKLAEMTSTRTRMQKQKMNDSMDTSNKEEK
For B2, in test [3], the apparent KM of dephosphorylation by PP1c (steady-state analysis) is 6 µM.

Broadly, the Kd is the concentration at which binding is half-saturated. With KPLKKLRFDIEGS [Rb^870–882 peptide], the affinity in test [4], expressed as Kd, was 1200 nM.
